From the supplement of paper PMC9233669
Variants at the floor of the assay were thinned out.

Experiments:
[1] = tested on: biotinyl-Phe-oxazolone; experiment: self-aminoacylation, catalytic enhancement (BFO) (fold over background); higher = more active; k-Seq, kA / k0A0; sequences stand for … in GGGAAUGGAUCCACAUCUACGAAUUC…UUCACUGCAGACUUGACGAAGCUG
Procedure, shortened: (§1)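 Mutagenized RNA pools (0.43 μM; 21-nt variable region) were treated with 2–1250 μM of each biotinyl-aminoacyl-oxazolone. Conditions were 50 μL HEPES/NaCl/KCl/MgCl2/CaCl2 buffer, 5% acetonitrile, pH 6.9–7.0, room temperature, 90 minutes. Catalytic enhancement, the median kA relative to the uncatalyzed rate, was derived from streptavidin capture, qPCR and Illumina sequencing.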

[2] = tested on: biotinyl-Leu-oxazolone; experiment: self-aminoacylation, catalytic enhancement (BLO) (fold over background); higher = more active; k-Seq, kA / k0A0; sequences stand for … in GGGAAUGGAUCCACAUCUACGAAUUC…UUCACUGCAGACUUGACGAAGCUG
Procedure, shortened: as §1

[3] = tested on: biotinyl-Trp-oxazolone; experiment: self-aminoacylation, catalytic enhancement (BWO) (fold over background); higher = more active; k-Seq, kA / k0A0; sequences stand for … in GGGAAUGGAUCCACAUCUACGAAUUC…UUCACUGCAGACUUGACGAAGCUG
Procedure, shortened: as §1

[4] = tested on: biotinyl-Val-oxazolone; experiment: self-aminoacylation, catalytic enhancement (BVO) (fold over background); higher = more active; k-Seq, kA / k0A0; sequences stand for … in GGGAAUGGAUCCACAUCUACGAAUUC…UUCACUGCAGACUUGACGAAGCUG
Procedure, shortened: as §1

[5] = tested on: biotinyl-Met-oxazolone; experiment: self-aminoacylation, catalytic enhancement (BMO) (fold over background); higher = more active; k-Seq, kA / k0A0; sequences stand for … in GGGAAUGGAUCCACAUCUACGAAUUC…UUCACUGCAGACUUGACGAAGCUG
Procedure, shortened: as §1

[6] = tested on: biotinyl-Ile-oxazolone; experiment: self-aminoacylation, catalytic enhancement (BIO) (fold over background); higher = more active; k-Seq, kA / k0A0; sequences stand for … in GGGAAUGGAUCCACAUCUACGAAUUC…UUCACUGCAGACUUGACGAAGCUG
Procedure, shortened: as §1

| Sequence | self-aminoacylation [1] | self-aminoacylation [2] | self-aminoacylation [3] | self-aminoacylation [4] | self-aminoacylation [5] | self-aminoacylation [6] |
| --- | --- | --- | --- | --- | --- | --- |
| AUUCAACUAAGUCAUCGGGUG [Fam2.2 aminoacylation ribozyme variant] | 69.4 | 10.7 | 7.24 | 4.13 | 7.12 | 4.92 |
| AUUCAACUAGGUCAUAGGGUG [Fam2.2 aminoacylation ribozyme variant] | 9.13 | 2.58 | 1.47 | 1.28 | 2 | 1.49 |
| AUUCAACUAGGUCUUCGGGUG [Fam2.2 aminoacylation ribozyme variant] | 29.8 | 4.84 | 4.34 | 3.01 | 4.21 | 2.93 |
| AUUCAACUAGGUUAUCGGGUG [Fam2.2 aminoacylation ribozyme variant] | 22.1 | 3.61 | 3.46 | 2.45 | 3.29 | 2.21 |
| AUUCAACUAGUUCAUCGGGUG [Fam2.2 aminoacylation ribozyme variant] | 16.8 | 2.77 | 2.29 | 1.95 | 2.82 | 1.95 |
| AUUCACAUAGAUCAUCGGGUG [Fam2.2 aminoacylation ribozyme variant] | 35.2 | 5.04 | 3.84 | 2.8 | 4.43 | 2.93 |
| AUUCACAUAGCUCAUCGGGUG [Fam2.2 aminoacylation ribozyme variant] | 12.6 | 2.36 | 2.34 | 2.38 | 1.91 | 2 |
| AUUCACAUAGGUCAUCAGGUG [Fam2.2 aminoacylation ribozyme variant] | 1.62 | 1.63 | 1.85 | 1.4 | 1.41 | 1.2 |
| AUUCACAUAGGUCAUCGGGUA [Fam2.2 aminoacylation ribozyme variant] | 22.7 | 2.54 | 3.56 | 2.57 | 2.86 | 2.24 |
| AUUCACAUAGGUCAUCGGGUG [Fam2.2 aminoacylation ribozyme variant] | 65.2 | 10.6 | 7.83 | 5.09 | 8.47 | 5.09 |
| AUUCACAUAGGUCAUGGGGUG [Fam2.2 aminoacylation ribozyme variant] | 46.7 | 9.35 | 6.97 | 4.12 | 7.28 | 4.56 |
| AUUCACAUAUGUCAUCGGGUG [Fam2.2 aminoacylation ribozyme variant] | 52.5 | 9.08 | 7.3 | 4.21 | 7.09 | 4.44 |
| AUUCACCAAGGCCAUCGGGUG [Fam2.2 aminoacylation ribozyme variant] | 30.1 | 5.34 | 4.57 | 3.49 | 5.09 | 3.32 |
| AUUCACCAAGGUCAACGGGUG [Fam2.2 aminoacylation ribozyme variant] | 42.5 | 8.07 | 6.16 | 3.1 | 6.3 | 3.52 |
| AUUCACCAAGGUCAUCGGGUU [Fam2.2 aminoacylation ribozyme variant] | 17.2 | 2.21 | 4.16 | 2.59 | 2.43 | 2.42 |
| AUUCACCAAGGUCAUCGGUUG [Fam2.2 aminoacylation ribozyme variant] | 9.05 | 1.72 | 1.69 | 1.39 | 1.55 | 1.42 |
| AUUCACCAAGGUCAUUGGGUG [Fam2.2 aminoacylation ribozyme variant] | 49.8 | 9.21 | 6.53 | 4.54 | 6.78 | 4.07 |
| AUUCACCAAGGUUAUCGGGUG [Fam2.2 aminoacylation ribozyme variant] | 63.7 | 8.94 | 6.57 | 4.4 | 7.8 | 4.45 |
| AUUCACCAAUGUCAUCGGGUG [Fam2.2 aminoacylation ribozyme variant] | 75.3 | 12.6 | 8.56 | 5.57 | 9.72 | 5.59 |
| AUUCACCACGGUCAUCGGGUG [Fam2.2 aminoacylation ribozyme variant] | 68.7 | 12.3 | 10 | 6.13 | 9.37 | 5.71 |
| AUUCACCCAGGGCAUCGGGUG [Fam2.2 aminoacylation ribozyme variant] | 20 | 6.26 | 3.92 | 3.72 | 3.74 | 3.62 |
| AUUCACCCAGGUAAUCGGGUG [Fam2.2 aminoacylation ribozyme variant] | 18.6 | 3.88 | 2.46 | 2.14 | 3.1 | 2.26 |
| AUUCACCCAGGUCAUCGGAUG [Fam2.2 aminoacylation ribozyme variant] | 0.458 | 0.895 | 1.07 | 0.988 | 0.669 | 0.889 |
| AUUCACCCAGGUCAUCGGCUG [Fam2.2 aminoacylation ribozyme variant] | 6.8 | 1.85 | 1.41 | 2 | 1.62 | 1.99 |
| AUUCACCCAGGUCAUCUGGUG [Fam2.2 aminoacylation ribozyme variant] | 28.2 | 4.84 | 3 | 2.25 | 3.99 | 2.35 |
| AUUCACCCAGGUCUUCGGGUG [Fam2.2 aminoacylation ribozyme variant] | 35 | 5.78 | 5.13 | 3.84 | 5.3 | 3.28 |
